Source: the supplement of paper PMC10567573
± gives the standard deviation.

Test: protein stability index of a GFP-peptide fusion (GPS, HEK-293T) (PSI 1-6); higher = more stable
Conditions: c terminus: a fixed tail appended
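Also: 24-mer peptide tiles fused after GFP, lentivirally expressed, FACS-sorted into six equal bins by GFP/DsRed ratio, decoded by Illumina sequencing, PSI is the read-weighted mean bin number.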

| Sequence | protein stability index (treatment: DMSO) | protein stability index (treatment: MLN4924 1 uM, 8 h) |
| --- | --- | --- |
| TSKCGSLKNIRHRPGGGRVKIESV [MAP2] | 3.1 ± 0.21 | 3.3 ± 0.44 |
| DTRVYIWDPHNGDILMEFGHLFPP [WSB1] | 2.38 ± 0.98 | 2.42 ± 0.44 |
| SITSKPATLTTTSATSKLIHPDED [ZNF207] | 5.31 ± 0.26 | 5.44 ± 0.28 |
| SREFFNRRGELRHITKLKPWSLFD [SRPK2] | 2.56 ± 0.07 | 2.9 ± 0.32 |
| RPTYFEMKNEKLLSKASEPKYQLF [RNF180] | 2.54 ± 0.28 | 2.78 ± 0.19 |
| WEEEKALWVEERALLEGEKALWED [CCDC70] | 5.07 ± 0.28 | 5.22 ± 0.13 |
| KSSSSSSSSSSSSSSSSSSSSSGP [TMEM40] | 5.29 ± 0.15 | 5.3 ± 0.1 |
| EFEQFESTIGFKLPNHRAAKRLWK [EPB41L3] | 3.17 ± 0.39 | 3.27 ± 0.61 |
| GATVRSFSINSRLASSLGNLNAAT [CDC14A] | 2.98 ± 0.1 | 2.92 ± 0.21 |
| ENHEIYMKDSMSAAEVGTGQYATT [EPB41L3] | 4.79 ± 0.22 | 4.83 ± 0.3 |
| LLEKNASVNEVDFEGRTPMHVACQ [RIPK4] | 3.83 ± 0.31 | 3.94 ± 0.16 |
| QEYFERHRWPPVWYLKEEDHYQRV [RHOBTB1] | 3.08 ± 0.24 | 3.08 ± 0.1 |
| KKPPEESTCFERPCFKWYTSPWSE [ADAMTSL2] | 2.67 ± 0.14 | 2.88 ± 0.42 |
| NFLLFDMTTHPLTNNNIKQRLIKK [GOLPH3] | 2.62 ± 0.22 | 2.81 ± 0.25 |
| RVPQTWSKRLYGVYDNEKKLQLQL [PLD5] | 2.39 ± 0.32 | 2.31 ± 0.28 |
| MDSGTRPVGSCCSSPAGLSREYKL [RIT1] | 3.35 ± 0.18 | 3.3 ± 0.16 |
| LGRMFGSGREHNFTRPNEKGEYEV [BTBD10] | 3.95 ± 0.08 | 3.98 ± 0.25 |
| AVVALTQDQPSEAATGGATLAQTI [HDAC6] | 4.27 ± 0.33 | 4.38 ± 0.24 |
| LLAPEAGSHPQQTQKLEEIKENAQ [TOR1AIP2] | 5.44 ± 0.097 | 5.47 ± 0.25 |
| SNTLGFGTEQAPYGMQTQNYPKGG [ETS2] | 4.29 ± 0.26 | 4.2 ± 0.28 |
| DFGDMHSYVRSRKRLREEEAARLF [TRIB1] | 3.5 ± 0.3 | 3.85 ± 0.45 |
| PKCSCGQLAAVHLSKSRTDYQPTQ [RNF180] | 2.55 ± 0.17 | 2.63 ± 0.35 |
| DHSQRICEVWACNLDEEMKKIRQV [CNOT7] | 3.43 ± 0.2 | 3.7 ± 0.18 |

| Sequence | protein stability index (treatment: DMSO) | protein stability index (treatment: MLN4924 1 uM, 8 h) |
| --- | --- | --- |
| ALEKLRSEMEEEKRQAVNKAVANM [ZMYND11] | 4.42 ± 0.38 | 4.34 ± 0.36 |
| AVPEDLADRLVRVHGDPAVWWVSQ [FUT8] | 2.61 ± 0.29 | 2.65 ± 0.039 |
| CIYSEVMEALDLQPGLSFLNLGSG [PCMTD2] | 2.29 ± 0.34 | 2.33 ± 0.44 |
| LEFLLALYFLFADAMQLNDKWQGL [CMTM3] | 2.77 ± 0.45 | 2.8 ± 0.93 |
| GCLLPDGSRMMAVAALVVNFSQPV [NLN] | 3.04 ± 0.46 | 2.75 ± 0.81 |
| AVFAVSAVVHEYALAVCLSFFYPV [SOAT1] | 3.23 ± 0.37 | 3.07 ± 0.23 |
| PLRNDVDKRGETTSASLLNAGLSH [SLC2A12] | 4.55 ± 0.32 | 4.66 ± 0.22 |
| NRSDHGIFHSRTSLQKLSTKLSAQ [FCHSD1] | 3.43 ± 0.25 | 3.67 ± 0.36 |
| EKSTVVEGGEVRFNGKGKKIRKPR [DLX1] | 4.77 ± 0.28 | 5.06 ± 0.33 |
| PGSIIGPQQHFLEEKQASLWVQGD [CDC14A] | 4.04 ± 0.37 | 4.14 ± 0.4 |
| LSFYNVTDRSHIYTFTDTFTEKLW [TRIM39] | 2.52 ± 0.31 | 2.3 ± 0.32 |
| ALCLEVRPTYFEMKNEKLLSKASE [RNF180] | 3.51 ± 0.21 | 3.67 ± 0.4 |
| QDSPLDLTVRKSQSEPSEQDGVLD [LCOR] | 5.42 ± 0.32 | 5.35 ± 0.37 |
| GAFGIVHLCLRKADQKLVIIKQIP [NEK8] | 2.55 ± 0.48 | 2.3 ± 0.33 |
| PKGSKGKEKDSPFKPKLYKGDRGL [RBBP5] | 3.86 ± 0.89 | 4.34 ± 0.46 |
| QAQDEVEQERRLSEARLSQRDLSP [FCHSD1] | 5.46 ± 0.28 | 5.31 ± 0.24 |
| TGQSKIYSYMSPNKCSGMRFPLQE [KMT5A] | 2.28 ± 0.29 | 2.27 ± 0.11 |
| GVFGFFATIVFATDFYLIFNDVAK [CMTM3] | 2.75 ± 0.27 | 3.44 ± 0.43 |
| GLVLLKHALGSPEKVKACQGQYET [TBC1D10A] | 2.74 ± 0.33 | 2.94 ± 0.047 |
| KMAVSRHLTRGRKMAHVIAACLYL [BRF1] | 2.81 ± 0.37 | 2.6 ± 0.56 |
| TAGDRLTEFRKGAQSLPGPCAAAR [IRX6] | 4.01 ± 0.18 | 4.17 ± 0.58 |
| MFPGVLLPLLESCSVRPDASVSSH [TCF25] | 2.62 ± 0.38 | 2.18 ± 0.2 |
| RFGQTIQSFTLRGDHRSPASAQKF [NET1] | 3.14 ± 0.27 | 3.27 ± 0.32 |

| Sequence | protein stability index (treatment: DMSO) | protein stability index (treatment: MLN4924 1 uM, 8 h) |
| --- | --- | --- |
| ELPDPLGGLLDEAMLDEISLMDLA [NFE2L1] | 4.26 ± 0.54 | 4.55 ± 0.23 |
| RLVDRDSVWGYDLGLRSLIPAVLT [MYORG] | 2.25 ± 0.54 | 2.28 ± 0.12 |
| VEQPKGTEVVRDAVRKLKFARHIK [GULP1] | 3.7 ± 0.11 | 3.77 ± 0.16 |
| ELRRQAPPPPPPSRGGPPPPPPPP [WASL] | 4.49 ± 0.44 | 4.64 ± 0.09 |
| SPRGPAPGEEKFENLEGVPSVCSE [ZNF263] | 5.41 ± 0.39 | 5.44 ± 0.29 |
| FSGSNEVDQMNRIVEVLGIPPAAM [DYRK1B] | 2.94 ± 0.14 | 3.23 ± 0.22 |
| DQRNPAKESLETPSNGRIDIKQLI [SOAT1] | 4.13 ± 0.26 | 4.24 ± 0.23 |
| LSFAHANCTLIISYQKPKEVVVAE [DPCD] | 2.69 ± 0.84 | 2.79 ± 0.73 |
| SRETQRTPMNHQKAVNDETCKASH [FBXO34] | 5.06 ± 0.09 | 5.17 ± 0.19 |
| TSDSEGAHVNTLHSGTKRDPKEDV [PHTF1] | 5.51 ± 0.22 | 5.54 ± 0.21 |
| NESLASLPLRVSFCPLSLWRWQLY [CLPTM1] | 2.45 ± 0.41 | 2.18 ± 0.4 |
| DEPGKGGFWRIDPQYAERLLSGAF [FOXJ1] | 2.6 ± 0.25 | 2.73 ± 0.34 |
| VEMLCDQAWGSMLEVPAGSRLNLT [CCDC3] | 2.75 ± 0.28 | 2.96 ± 0.31 |
| IQDLCEMLGKYGSSLEFTELLTLV [CASP6] | 2.34 ± 0.34 | 2.15 ± 0.26 |
| PLCNFNVIESFTELSRIVLMRHGM [RAB40C] | 2.94 ± 0.45 | 2.73 ± 0.41 |
| VVGAKKIYAHRVILSACSPYFRAM [KLHL20] | 2.78 ± 0.26 | 2.41 ± 0.84 |
| ICLMCVHSLERAGSKQYSAAIAFT [SMG5] | 2.58 ± 0.33 | 2.42 ± 0.78 |
| KGCLKLCRRCYDWIHRPGCRCKNS [SPRY1] | 3.04 ± 0.2 | 3.46 ± 0.2 |
| EWNQKRARKAMRNGISPIIIDNTN [N4BP2L1] | 2.65 ± 0.16 | 3.02 ± 0.55 |
| EKSIEQTQIKGLKNKPKKMGHIKP [PHTF1] | 3.93 ± 0.24 | 4.21 ± 0.25 |
| GYFAFMLFRKRLGSMILAFRPRPN [GDAP1] | 2.69 ± 0.79 | 2.37 ± 0.57 |
| LEKNHPEEFCEFVKSNTEQMREAF [ZBED1] | 4.58 ± 0.13 | 4.63 ± 0.16 |
| VGELLPCKICGRTFFPVALKKHGP [ZC2HC1A] | 2.84 ± 0.51 | 2.57 ± 0.19 |

| Sequence | protein stability index (treatment: DMSO) | protein stability index (treatment: MLN4924 1 uM, 8 h) |
| --- | --- | --- |
| KGGLVWDENSSDGRYVKENCKPLK [CLK3] | 4.53 ± 0.098 | 4.82 ± 0.12 |
| PLCNFNIIESFTELARIVLLRHRM [RAB40A] | 2.6 ± 0.21 | 2.87 ± 0.79 |
| WIGKQLPTPVGAVQQDPALSSNRE [CSNK1G3] | 4.11 ± 0.19 | 4.48 ± 0.26 |
| IEIEDEAEKWQKEKDRIKSFTTNE [TRIM29] | 4.94 ± 0.17 | 4.96 ± 0.16 |
| AVLEYLYTGMFTSSPDLDDMKLII [RHOBTB2] | 2.68 ± 0.6 | 2.53 ± 0.3 |
| LHESYCMDTSHQPLLPAPPKTPMD [LYSMD4] | 4.65 ± 0.27 | 4.59 ± 0.11 |
| YGICREPVGLVMEYMETGSLEKLL [RIPK4] | 2.29 ± 0.26 | 2.22 ± 0.4 |
| RRRSRKKPSGALGSESYKSSAGSA [EHMT1] | 4.86 ± 0.32 | 5.3 ± 0.073 |
| PRAGKEESGVSVSNSQPTNESHSI [SLC29A1] | 5.33 ± 0.25 | 5.26 ± 0.27 |
| SAYISNYAFANVFHGWKYMFGLVI [SLC2A12] | 2.91 ± 0.38 | 2.9 ± 0.67 |
| EPGPAGPPPPPSPSSLGPLLPLQR [BTBD1] | 4.75 ± 0.24 | 4.76 ± 0.52 |
| AAETAAQGPTPRYFTWDEVAQRSG [FADS1] | 4.23 ± 0.23 | 4.11 ± 0.27 |
| VLVLTKPLGTQVAVNAHQWLDNPE [SEPHS2] | 2.4 ± 0.18 | 2.19 ± 0.37 |
| TDGLQEVPLCSCRMETPKSREITT [EHMT1] | 3.21 ± 0.25 | 3.07 ± 0.26 |
| LGYQAVPSGSSGSLSTSSSSSPPG [CEBPB] | 4.78 ± 0.12 | 4.85 ± 0.14 |
| SNRWLMVKIFLILIVFFIIFVVFL [STX5] | 3.38 ± 0.24 | 3.45 ± 0.32 |
| RRGQEPLSALLQFGVTYLEDYSAE [BCL2L13] | 3.11 ± 0.3 | 3.17 ± 0.43 |
| QSFREQEEPSNKRVRPLARVTSLA [NET1] | 4.21 ± 0.17 | 4.23 ± 0.097 |
| LPSNLVQYYDDEKKTWKILTIMPY [KLHL14] | 2.42 ± 0.33 | 2.3 ± 0.12 |
| WLDNPERWNKVKMVVSREEVELAY [SEPHS2] | 2.87 ± 0.31 | 2.46 ± 0.31 |
